The target of series [1] is GCN-Ang1 ( | human). As to the kind of experiment: non-reducing SDS-PAGE; proteins taken from the media of transfected HEK293 cells with streptactin sepharose, SDS-PAGE under non-reduced (NR) and reduced (R) conditions, immunoblot with anti-Ang1 antibody; disulfide-linked oligomers. The settings on record: both partners purified. (In western blotting, separated proteins are transferred to a membrane and probed.)

In series [2] the target is T1, Fc-Ang1 (human).
T1 chain: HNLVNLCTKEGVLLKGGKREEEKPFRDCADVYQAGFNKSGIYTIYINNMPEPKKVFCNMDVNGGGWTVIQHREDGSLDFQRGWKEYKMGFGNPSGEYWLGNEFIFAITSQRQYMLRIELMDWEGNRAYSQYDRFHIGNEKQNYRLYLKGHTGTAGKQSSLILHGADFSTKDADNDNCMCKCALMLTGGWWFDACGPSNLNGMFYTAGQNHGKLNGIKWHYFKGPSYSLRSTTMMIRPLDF
The series is described as above. The settings on record: both partners purified.

Series [3] deals with the molecule itself. Described as above.
Series [4] deals with T2, CMP-Ang1-2 (human).
T2 chain: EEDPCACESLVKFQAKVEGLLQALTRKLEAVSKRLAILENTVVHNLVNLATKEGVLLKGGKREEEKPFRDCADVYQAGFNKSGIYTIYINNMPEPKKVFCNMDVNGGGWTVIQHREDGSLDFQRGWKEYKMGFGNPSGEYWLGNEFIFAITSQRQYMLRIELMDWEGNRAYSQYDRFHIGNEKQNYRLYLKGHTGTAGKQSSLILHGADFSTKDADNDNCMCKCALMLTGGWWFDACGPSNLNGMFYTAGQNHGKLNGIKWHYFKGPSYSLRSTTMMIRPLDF
As to the kind of experiment: negative-stain transmission electron microscopy; purified proteins on carbon-coated copper grids, stained with 0.75% uranyl formate, 120 kV. The settings on record: both partners purified.

For series [5], the target named is T3, COMP-Ang1 ( | human).
T3 chain: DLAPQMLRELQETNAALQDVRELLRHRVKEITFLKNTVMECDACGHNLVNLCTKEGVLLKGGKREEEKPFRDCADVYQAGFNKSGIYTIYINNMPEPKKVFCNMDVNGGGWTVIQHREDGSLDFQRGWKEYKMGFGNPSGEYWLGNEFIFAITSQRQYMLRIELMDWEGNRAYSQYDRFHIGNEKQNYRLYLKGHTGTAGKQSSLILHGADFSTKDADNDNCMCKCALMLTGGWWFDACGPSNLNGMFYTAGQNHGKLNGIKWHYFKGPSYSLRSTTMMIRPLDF
As to the kind of experiment: non-reducing SDS-PAGE; proteins taken from the media of transfected HEK293 cells with streptactin sepharose, SDS-PAGE under non-reduced (NR) and reduced (R) conditions, immunoblot with anti-Ang1 antibody; disulfide-linked oligomers. The following applies: both partners purified.

Residue numbers refer to the chain shown, from its start.

B1: GCN-Ang1 (ligand)
chain: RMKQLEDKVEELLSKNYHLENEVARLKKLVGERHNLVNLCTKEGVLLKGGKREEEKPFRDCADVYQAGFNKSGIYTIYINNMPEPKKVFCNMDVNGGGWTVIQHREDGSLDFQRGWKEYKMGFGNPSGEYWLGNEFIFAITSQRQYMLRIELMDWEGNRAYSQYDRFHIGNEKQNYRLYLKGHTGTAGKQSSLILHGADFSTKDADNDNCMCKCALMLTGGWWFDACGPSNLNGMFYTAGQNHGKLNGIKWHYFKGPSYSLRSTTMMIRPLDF
modifications: N-glycan at Ang1 Asn295 / N-glycan at Ang1 Asn295
Usually stoichiometry N stands for the number of molecules, sites or subunits per partner or assembly. Regarding B1, the “stoichiometry N” value in series [1] stood at 2.

B2: Fc-Ang1 (Fc fusion)
chain: T1 chain
modifications: dimerized through N-terminal human IgG1 Fc; N-glycan at Ang1 Asn295 / dimerized through N-terminal human IgG1 Fc; N-glycan at Ang1 Asn295
B2: the “stoichiometry N” value in series [2] came to 2.

B3: CMP-Ang1-3 (dimeric CMP-Ang1), produced in HEK293 cells (ligand)
chain: T2 chain with C5A
modifications: N-glycan at asparagine 106 (complex tri- (~57%) or tetra- (~25%) antennary type glycans with one or two fucose residues)
Regarding B3, the “stoichiometry N” value in series [3] is 2.

B4: CMP-Ang1-2 (ligand)
chain: T2 chain
modifications: inter-chain disulfides; N-glycan at Ang1 Asn295 (construct Asn106) / inter-chain disulfides; N-glycan at Ang1 Asn295 (construct Asn106)
With B4, in series [4], the “stoichiometry N” value turned out to be 3.

B5: COMP-Ang1 (ligand)
chain: T3 chain
modifications: inter-chain disulfides; N-glycan at Ang1 Asn295 (construct Asn109) / inter-chain disulfides; N-glycan at Ang1 Asn295 (construct Asn109)
For B5, in series [5], the “stoichiometry N” value was found to be 5.

For the origin of these results see publication PMC4609988 (Scientific Reports, 2015).
